This is an account of results in paper PMC11117474.

One assay has as its target NUPR1 (Homo sapiens) (UniProt O60356). To be noted: cited from earlier work.
Assay [1] has as its target RYBP (RING1A and YY1 binding protein) (UniProt Q8N488). As to the kind of experiment: other fluorescence titration; ARM-PKP1 0-20 uM added to fixed RYBP 4.6 uM; 25 °C; 20 mM Tris pH 7.5, 5 mM TCEP, 150 mM NaCl; fluorescence at 330 nm; fit with ligand depletion.
Assay [2] concerns the target armadillo-repeat domain of plakophilin 1 (ARM-PKP1). As to the kind of experiment: ITC; RYBP (100 uM) in the syringe titrated into ARM-PKP1 (10 uM) in the cell; 25 °C; 20 mM Tris pH 7.5, 5 mM TCEP, 150 mM NaCl; single binding site model.

UniProt O60356, sequence (O60356 whole entry): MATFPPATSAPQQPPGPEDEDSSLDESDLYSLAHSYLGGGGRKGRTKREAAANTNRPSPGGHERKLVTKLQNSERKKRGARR

For the molecule “Plakophilin 1 ARM domain (from UniProt Q13835)”, the Kd (in general, the equilibrium constant for the complex coming apart) with NUPR1 (Homo sapiens) is 10 µM.
In assay [1], “armadillo-repeat domain of plakophilin 1 (ARM-PKP1) (domain or fragment)” had a Kd of 9 µM.

B1: RYBP (RING1A and YY1 binding protein) (natural protein)
chain: MTMGDKKSPTRPKRQAKPAADEGFWDCSVCTFRNSAEAFKCSICDVRKGTSTRKPRINSQLVAQQVAQQYATPPPPKKEKKEKVEKQDKEKPEKDKEISPSVTKKNTNKKTKPKSDILKDPPSEANSIQSANATTKTSETNHTSRPRLKNVDRSTAQQLAVTVGNVTVIITDFKEKTRSSSTSSSTVTSSAGSEQQNQSSSGSESTDKGSSRSSTPKGDMSAVNDESF
As for B1, in assay [2], the Kd came out at 12 µM; the dH is -11.9 kcal/mol; the stoichiometry N (in general, a count of units in the complex or per binding partner) stood at 1.
